Experimental findings from the nanobody polyreactivity screen of Harvey et al. (2022) are described below.

This data set in a line: yeast display, Sf9 membrane polyspecificity reagent, FACS + sequencing; frameworks hold sequencing errors. An outline of the steps: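 Galactose induction of a Saccharomyces cerevisiae BJ5465 synthetic nanobody display library ran 36–48 hours. The cells were then stained for 1 hour at 4 °C with 10% biotinylated, detergent-solubilized Sf9 membrane reagent, pulled down on streptavidin microbeads and FACS-sorted into low and high (top ~1%) gates on expression and reagent-binding fluorescence. Labels for polyreactivity follow the gate of origin.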
Take “QVQLVESGGGLVQAGGSLRLSCAASGITFVQYAMGWYRQAPGKERELVAAITSDGRTYYADSVKGRFTISRDNAKNTVYLQMNSLKREDTAVYYCAADVWRYTAYGGAYRRDYWGQGTQVTVSS”: the “polyreactivity (PSR sort gate)” value is reported as “low polyreactivity”. For the sequence “QVQLVESGGGLVQAGGSLRLSCAASGITFVRNAMGWYRQAPGKERELVAAISGRGGITYYADSVKGRFTISRDNAKNTVYFQMNSLKPEDTAVYYCAASSAGSSYNYWGQGSQVTVSS”, the “polyreactivity (PSR sort gate)” value was “high polyreactivity”. With “QVQLVESGGGLVQAGGSLRLSCAASGITFVRYAMGWYRQAPGKERELVATITRRGGSTYYADSVKGRFTISRDNAKNTVYLQMNSLKPEDTAVYYCAADAYIWLYTDFPAYDYWGQGTHVTVSS” the entry was “high polyreactivity”. To “QVQLVESGGGLVQAGGSLRLSCAASGITFVRYTMGWYRQAPGKERQFVAGITRGGSTCYADSVKGRFTISRDNAKNTVYLQMNSLKPEDTAVYYCAARPRFLRASVEYDYWGQGTQVTVSS” belongs “high polyreactivity”; to “QVQLVESGGGLVQAGGSLRLSCAASGITFVVYTMGWYRQAPGKERELVASISISGDSTNYAESVKGRFTISRDNAKNTVYLQMNILKPEDTAVYYCNAAFYHVQFPWIAYEYWGQGTQVTVSP”, “low polyreactivity”; to “QVQLVESGGGLVQAGGSLRLSCAASGITFVYYAMGWYRQAPGKERELVAAISKNGGSTYYADSVKGRFTISRDNAMNTVYLQMNSLKPEDTAVYYCAAEEGYPWVRYNYWGQGPQVTVSS”, “high polyreactivity”.

“QVQLVESGGGLVQAGGSLRLSCAASGITFWANAMGWYRQAPGKERELVASIRSSGGSTYYADSVKGRFTISRDNAKNTVYLQMNSLKPEDTAVYYCNARLGPLYVYRQYDSWGQGTQVTVSS”: the “polyreactivity (PSR sort gate)” value is “low polyreactivity”.

Take “QVQLVESGGGLVQAGGSLRLSCAASGITFWDYAMGRYRQAPGKERELVAGISTRGGSTYYADSVKGRFTISRDNAKNTVYLQMNSLKPEDTAVYYCAADAQTSFGLGWGSDYDYWGQGTQVTVSS”: the “polyreactivity (PSR sort gate)” value is reported as “low polyreactivity”.

With “QVQLVESGGGLVQAGGSLRLSCAASGITFWEYAMGWYRQAPGKERELVAAISRSGGSTYYADSVKGRFTISRDTAKNTVYLQMNSLKPEDTAVYYCAAYTRRPIYDYWGQGTQVTVSS”, the “polyreactivity (PSR sort gate)” value was “high polyreactivity”. With “QVQLVESGGGLVQAGGSLRLSCAASGITFWEYAMGWYRQAPWKERELVAAISRSGGSTYYADSVKGRFTISRDNAKNTVYLQMNSLKPEDTAVYYCADETRRPIYDYWGQGTQVTVSS” the entry was “high polyreactivity”.

As for “QVQLVESGGGLVQAGGSLRLSCAASGITFWKYAMGWYRQAPGKERELVAAISGRGGSTYYADSVKGRFTISRDNAKNTVYLQMNSLKPEDTAVYSCDTRTYYRYPVFYWGQGTQVTVSS”, the “polyreactivity (PSR sort gate)” value is recorded as “high polyreactivity”. To “QVQLVESGGGLVQAGGSLRLSCAASGITFWKYTMGWYIHAPGKERELVASITWSGGSTYYADSVKGRFTISRDNAKNTVYLQMNSLKPEDTAVYYCNAEYLRIDLDYWGQGTQVTVSS” belongs “low polyreactivity”; to “QVQLVESGGGLVQAGGSLRLSCAASGITFWLYAMGWSRQAPGKERELVAGIDNGGSTTYADSVKGRFTISRDNAKNTVYLQMNSLNPEDTAVYYCAATFEWDPVYPYNGFIYDYWGQGTQVTVSS”, “high polyreactivity”; to “QVQLVESGGGLVQAGGSLRLSCAASGITFWTYAMGGYRQAPGKERELVAAISKTVGSTFYADSVKGRFTISRDNAKNTVYLQMNSLKPEDTEVYYCNARRRRTVGWQYNYWGQGTQVTVSS”, “high polyreactivity”. To “QVQLVESGGGLVQAGGSLRLSCAASGITFWVYVMGWYRQAPGKEREFVADISSGAGTTYYADSVKGRFTISRDNAKNTVYLQMNSLKPEDTAVYYCAARRWWPQWYDYWGQGTQVTVSS” belongs “high polyreactivity”; to “QVQLVESGGGLVQAGGSLRLSCAASGITFWYYAMGWYRQAPGKERELVAAINWSGGSTYYADSVKGRFTISRDNAKNTVYLQMNSLKPEDTAVYYCAAEFGLWPYEYGYWGQGTQVTVSS”, “high polyreactivity”; to “QVQLVESGGGLVQAGGSLRLSCAASGITFWYYAMGWYRQAPGKERELVAAITGGDSTNYADSVKGRFTISRDNAKNTVYLQMNSLKPEDTAVYYCNAEGSYEGYDDYWGHGTQVTVSS”, “high polyreactivity”.

In the case of “QVQLVESGGGLVQAGGSLRLSCAASGITFWYYVMGWYRQAPGKERELFAAITLSGGSTYYADSVKGRFTISRDNAKNTVYLQMNSLKPEDTAVYYCNADGSAGIRGKYDYWGQGTQVTVSS”, the “polyreactivity (PSR sort gate)” value is “low polyreactivity”. With “QVQLVESGGGLVQAGGSLRLSCAASGITFYEYAMGWYRQAPGKEREFVAAIDDGDSSTYYADSVKGRFTISRDNAKNTVYLQMNSLKPEDTAVYFCNADPYYDYSLNWGDYWGQGTQVTVSS” the entry was “low polyreactivity”. To “QVQLVESGGGLVQAGGSLRLSCAASGITFYEYAMGWYRQAPGKEREFVAAIDDGDSSTYYADSVKGRFTISRDNGKNTVYLQMNTLKPEDSAVFDCNADPYYDYSLNWGDYWGQGTQVTVSS” belongs “low polyreactivity”.

Consider “QVQLVESGGGLVQAGGSLRLSCAASGITFYEYAMGWYRQAPGKERELVATITSGGNTNYADSVKGRFTISRDNAKNTVYLQMNSLKPEDTAVYYCNKEWDGDGYTDDWDYDYWGQGTQVTVSS”, for which the “polyreactivity (PSR sort gate)” value was “low polyreactivity”. With “QVQLVESGGGLVQAGGSLRLSCAASGITFYFYAMGWYRQAPGKERELVARITSRGTRTYYADSVKGRFTISRDNAKNTVYLQMNSLKPEDTAVYYCAAGVSWDDYYWGQGTQVTVSS” the entry was “high polyreactivity”; with “QVQLVESGGGLVQAGGSLRLSCAASGITFYFYAMGWYRQAPGKERELVASITSSGSTDYADSVKGRFTISRDNAKNTVYLQMNSLKPEDTAVSYCAADVQKHFYSFGDERGFPFDYWGQGTQVTVSS”, “low polyreactivity”; with “QVQLVESGGGLVQAGGSLRLSCAASGITFYFYVMGWYRQAPGKERELVADISTSDDSTYYADSVKGRFTISRDNAKNTVYLQMNSLKPEDTAVYYCATATRTYSAWYEYDYWGQGTQVTVSS”, “low polyreactivity”. To “QVQLVESGGGLVQAGGSLRLSCAASGITFYGNAMGWYRQAPGKERELVAAISSSGGTTYYADSVKGRFTISRDNAKNTVYLQMNSLIPEDTAVYYCNALHPVVYYGTYFNLRRYDYWGQGTQVTVSS” belongs “low polyreactivity”; to “QVQLVESGGGLVQAGGSLRLSCAASGITFYGYAMAWYRQAPGKERELVATITSGGSTYYADSVKGRFTISRDNAKNTVYLQMNSLKPEDTAVYYCAASRWYRRTRYGYWGQGTQVTVSS”, “high polyreactivity”; to “QVQLVESGGGLVQAGGSLRLSCAASGITFYGYAMGWYRQAPGKERELVAAISRSGGSTYYADSVKGRFTISRDHAKNTVYVQMNSLKPEDTAVYYCNTDYGSSYNYWGQGTQVTVSS”, “high polyreactivity”. With “QVQLVESGGGLVQAGGSLRLSCAASGITFYGYAMGWYRQAPGKERELVARITISGRTNYADYVKGRFTISRDNAKNTVYLQMNSLKPEDTAVYYCNAVYRGYYSGELDYWGQGTQVTVSS” the entry was “high polyreactivity”. “QVQLVESGGGLVQAGGSLRLSCAASGITFYGYAMGWYRQAPGQERELVAAISSRGGSTYYADSVKGRFTISRDNAKNTVYLQMNSLKPEDTAVYNCAAVYYTGEYYYWGQGTQVTVSS”: the “polyreactivity (PSR sort gate)” value is reported as “high polyreactivity”.

As for “QVQLVESGGGLVQAGGSLRLSCAASGITFYGYDMGWYRQAPGKERELFAAISRSGGSTYYADSVKGRFTISRDNAKNTVYLQMNSLKPEDTAVYYCAADKQGYLGRTAFRYYYWGQGTQVTVSS”, the “polyreactivity (PSR sort gate)” value is listed as “high polyreactivity”.
